Measurements reported in patent US20210275683A1 (SILVERBACK THERAPEUTICS, published 2021).
Residue numbers refer to the chain shown, from its start. Numbers in names are those of the source.

B1: hzD6.2C-Compound 2.14 (anti-Nectin-4-TLR8 agonist immunoconjugate) (antibody, V domains shown)
VH: EVQLVESGGGLVQPGGSLRLSCAASGFTFSNYDMSWVRQAPGKGLEWVATISSGGSYTYYVDSVKGRFTISRDNAKNSLYLQMNSLRAEDTAVYYCARQELGSYYAMDYWGQGTTVTVSS
VL: DIVMTQTPLSLPVTPGEPASISCRSSQSIVHSNANTYLEWYLQKPGQSPQLLIYKVSNRFSGVPDRFSGSGSGTDFTLKISRVEAEDVGVYYCFQGSHVPYTFGGGTKVEIKR
notes: hzD6.2C conjugated to linker-TLR8 agonist Compound 2.14
B2: hzD6.1C-Compound 2.14 (anti-Nectin-4-TLR8 agonist immunoconjugate) (antibody, V domains shown)
VH: B1 VH
VL: B1 VL with I2V, A34G
notes: hzD6.1C conjugated to linker-TLR8 agonist Compound 2.14
B3: D6C IgG1-Compound 2.14 (parental antibody TLR8 agonist conjugate) (antibody, V domains shown)
VH: EVMLVESGGALVKPGGSLKLSCVASGFTFSNYDMSWVRQTPEKRLEWVATISSGGSYTYYVDSVKGRFTISRDNARNTLHLQMSSLRSKDTAMYYCARQELGSYYAMDYWGQGTSVTVSS
VL: DVVMTQTPLSLPVSLGDQASISCRSSQSIVHSNGNTYLEWYLQKPGQSPKLLIYKVSNRFSGVPDRFSGSGSGTDFTLKISRVEAEDLGVYYCFQGSHVPYTFGGGTKLEIK
notes: IgG1
B4: humanized D6C mAb with hzD6.2C VL (G34A), human IgG1 / human kappa (antibody, V domains shown)
VH: B1 VH
VL: B1 VL
notes: also called hzD6.2C mAb
B5: humanized D6C mAb with hzD6.1C VL (I2V), human IgG1 / human kappa (antibody, V domains shown)
VH: B1 VH
VL: B1 VL with I2V, A34G
notes: also called hzD6.IC
B6: D6C parental chimeric anti-Nectin-4 antibody (D6C IgG1) (antibody, V domains shown)
VH: B3 VH
VL: B3 VL
notes: Called the parental chimeric antibody; also called chimeric D6C

biological target: T1, Nectin-4 on MDA-MB-175-VII tumor cells (UniProt Q96NY8 32-510, limits assumed); experiment: cell-based or functional assay
T1 sequence (looked up): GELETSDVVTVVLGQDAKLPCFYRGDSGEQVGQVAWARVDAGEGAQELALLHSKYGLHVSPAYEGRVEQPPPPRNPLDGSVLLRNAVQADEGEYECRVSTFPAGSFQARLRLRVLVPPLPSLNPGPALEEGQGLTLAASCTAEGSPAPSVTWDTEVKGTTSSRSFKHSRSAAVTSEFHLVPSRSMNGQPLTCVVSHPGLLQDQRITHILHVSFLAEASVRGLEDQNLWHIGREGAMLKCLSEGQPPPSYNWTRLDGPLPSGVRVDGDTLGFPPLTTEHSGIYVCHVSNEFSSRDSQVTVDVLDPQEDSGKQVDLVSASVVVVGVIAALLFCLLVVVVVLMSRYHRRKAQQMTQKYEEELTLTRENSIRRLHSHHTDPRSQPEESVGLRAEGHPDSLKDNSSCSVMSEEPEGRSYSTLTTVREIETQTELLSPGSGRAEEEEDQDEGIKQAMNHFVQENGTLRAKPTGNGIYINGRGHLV

**Q.** Which “TNF-α production from human PBMCs co-cultured with MDA-MB-175-VII cells, EC50” value (“TNF-α production” below) does the source give for B1 here?
**A.** 0.37 nM

**Q.** B2 was tested. Which “TNF-α production” value did it give?
**A.** 0.33 nM

**Q.** How did the “TNF-α production” value turn out when B3 was run?
**A.** 0.83 nM

biological target: T2, huNectin-4 ECD-hFc (human, UniProt Q96NY8 32-349); experiment: BLI (Octet Red 96), biotinylated hzD6.2C on streptavidin biosensors, dimeric ECD-hFc in solution, 1:1 model, KD with avidity
T2 construct: extracellular domain; Bought (Sino Biological); also called hFc-tagged human Nectin-4 ECD dimeric protein; human Nectin-4 ECD; not shown: human Fc tag
T2 sequence (looked up): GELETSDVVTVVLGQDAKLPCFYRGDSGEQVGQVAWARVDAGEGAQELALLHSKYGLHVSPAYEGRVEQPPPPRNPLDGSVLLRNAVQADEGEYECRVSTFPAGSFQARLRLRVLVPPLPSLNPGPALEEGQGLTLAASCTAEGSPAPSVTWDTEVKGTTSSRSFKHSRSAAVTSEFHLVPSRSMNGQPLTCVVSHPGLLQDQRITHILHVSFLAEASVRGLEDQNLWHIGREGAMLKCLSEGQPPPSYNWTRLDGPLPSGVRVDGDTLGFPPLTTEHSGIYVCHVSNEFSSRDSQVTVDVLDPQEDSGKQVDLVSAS
Protocol: (§1) Analysis of hzD6.2C monoclonal antibody (mAb) for binding to human Nectin-1, Nectin-2, Nectin-3, and Nectin-4 extracellular domains (ECDs) was performed using Octet® Red 96 instrument (ForteBio, Inc.). Biotinylated hzD6.2C mAb was immobilized on streptavidin biosensors and incubated with hFc-tagged human Nectin-1, -2, -3, and -4 ECD dimeric proteins (Sino Biological) at varying concentrations ranging from 1.2 nM to 300 nM in PBS/1% BSA/0.2% Tween 20. The experimental measurements were performed as follows: (1) baseline acquisition (30 s); (2) biotinylated hzD6.2C mAb loading onto streptavidin biosensor (120 s); (3) second baseline acquisition (30 s); (4) association of interacting dimeric Nectin 1/2/3/4 ECD proteins for kₒₙ measurement (90 s); and (5) dissociation of interacting dimeric ECDs for koff measurement (180 s). The interacting dimeric Nectin ECD proteins were used at 5-6 concentrations of 3-fold concentration series. Data were analyzed using Octet® Data Analysis Sofware 9.0 (ForteBio, Inc.) and fitted to the 1:1 binding model. Equilibrium dissociation constants (KD) were calculated by the ratio of […].

**Q.** How did the Kd turn out when B4 was run?
**A.** < 0.001 nM

biological target: T1, Nectin-4 on MDA-MB-175-VII tumor cells; experiment: flow cytometry on MDA-MB-175-VII cells (Nectin-4 expressing tumor cell line), anti-huIgG1-PE secondary, MFI (Geo Mean)
Protocol: (§2) After incubations, cells were washed with FW and then analyzed on a flow cytometer.

**Q.** With B1 as the binder, how does the EC50 read?
**A.** 0.0095 µg/mL

**Q.** B4 was tested. Which EC50 did it give?
**A.** 0.012 µg/mL

**Q.** B2 was tested. Which EC50 did it give?
**A.** 0.0086 µg/mL

**Q.** With B5 as the binder, how does the EC50 read?
**A.** 0.0097 µg/mL

**Q.** For B3, which EC50 is on record?
**A.** 0.011 µg/mL

**Q.** For B6, which EC50 is on record?
**A.** 0.01 µg/mL

biological target: T3, huNectin-2 ECD-hFc (human, UniProt Q92692 32-360); experiment: BLI (Octet Red 96), biotinylated hzD6.2C on streptavidin biosensors, dimeric ECD-hFc in solution
T3 construct: extracellular domain; Bought (Sino Biological); also called hFc-tagged human Nectin-2 ECD dimeric protein; not shown: human Fc tag
T3 sequence (looked up): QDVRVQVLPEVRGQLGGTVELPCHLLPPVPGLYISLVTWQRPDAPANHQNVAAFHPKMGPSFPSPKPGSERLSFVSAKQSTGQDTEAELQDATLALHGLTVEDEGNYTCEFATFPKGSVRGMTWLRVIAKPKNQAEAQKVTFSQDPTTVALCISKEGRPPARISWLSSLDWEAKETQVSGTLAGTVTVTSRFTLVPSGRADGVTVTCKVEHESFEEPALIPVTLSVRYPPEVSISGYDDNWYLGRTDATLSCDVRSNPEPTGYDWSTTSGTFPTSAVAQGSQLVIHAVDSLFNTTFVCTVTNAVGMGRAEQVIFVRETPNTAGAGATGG
Protocol: as §1

**Q.** Does B4 bind?
**A.** no binding (tested: 1.2 nM to 300 nM)

biological target: T4, huNectin-1 ECD-hFc (human, UniProt Q15223 31-355); experiment: as above
T4 construct: extracellular domain; Bought (Sino Biological); also called hFc-tagged human Nectin-1 ECD dimeric protein; not shown: human Fc tag
T4 sequence (looked up): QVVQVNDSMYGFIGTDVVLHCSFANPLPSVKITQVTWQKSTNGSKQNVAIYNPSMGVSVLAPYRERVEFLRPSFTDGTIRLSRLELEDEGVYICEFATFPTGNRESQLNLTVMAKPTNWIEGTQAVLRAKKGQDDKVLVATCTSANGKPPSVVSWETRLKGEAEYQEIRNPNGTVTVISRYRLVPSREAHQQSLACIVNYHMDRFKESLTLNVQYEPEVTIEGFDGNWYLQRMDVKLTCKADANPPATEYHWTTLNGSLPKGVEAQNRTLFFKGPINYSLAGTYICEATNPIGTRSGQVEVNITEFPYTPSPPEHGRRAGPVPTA
Protocol: as §1

**Q.** Does B4 bind?
**A.** no binding (tested: 1.2 nM to 300 nM)

biological target: T5, huNectin-3 ECD-hFc (human, UniProt Q9NQS3 58-404); experiment: as above
T5 construct: extracellular domain; Bought (Sino Biological); also called hFc-tagged human Nectin-3 ECD dimeric protein; not shown: human Fc tag
Protocol: as §1

T5 sequence (Q9NQS3 58-404): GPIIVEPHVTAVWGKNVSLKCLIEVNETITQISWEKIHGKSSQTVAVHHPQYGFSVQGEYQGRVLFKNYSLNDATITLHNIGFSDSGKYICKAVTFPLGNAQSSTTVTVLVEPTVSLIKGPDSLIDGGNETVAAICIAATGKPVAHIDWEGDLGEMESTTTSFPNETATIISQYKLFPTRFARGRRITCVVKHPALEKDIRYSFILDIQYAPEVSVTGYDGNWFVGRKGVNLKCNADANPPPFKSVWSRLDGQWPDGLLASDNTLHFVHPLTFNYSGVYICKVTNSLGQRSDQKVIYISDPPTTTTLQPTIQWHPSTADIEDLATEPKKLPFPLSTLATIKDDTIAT

**Q.** Does B4 bind?
**A.** no binding (tested: 1.2 nM to 300 nM)

biological target: T6, human Nectin-4 on transfected HEK-293 cells (human, UniProt Q96NY8 32-510); experiment: flow cytometry on HEK-293 cells transfected with human Nectin-4, anti-huIgG1-PE secondary, MFI (Geo Mean)
T6 construct: whole, on cells; also called HEK-293 cells transfected with human Nectin-4; Nectin-4-expressing HEK-293 cells
T6 sequence (looked up): T1 sequence (looked up)
Protocol: as §2

**Q.** How did the EC50 turn out when B1 was run?
**A.** 0.034 µg/mL

**Q.** For B4, which EC50 is on record?
**A.** 0.014 µg/mL

**Q.** B2 was tested. Which EC50 did it give?
**A.** 0.069 µg/mL

**Q.** Which EC50 does the source give for B5 here?
**A.** 0.02 µg/mL

**Q.** For B3, which EC50 is on record?
**A.** 0.049 µg/mL

**Q.** For B6, which EC50 is on record?
**A.** 0.03 µg/mL

biological target: T7, cynomolgus Nectin-4 on transfected HEK-293 cells (cynomolgus, UniProt A0A2K5WES1 32-510); experiment: flow cytometry on HEK-293 cells transfected with cynomolgus Nectin-4, anti-huIgG1-PE secondary, MFI (Geo Mean)
T7 construct: whole, on cells; also called HEK-293 cells transfected with cynomolgus Nectin-4
T7 sequence: T1 sequence (looked up) with V39A, I230V, A437T
Protocol: as §2

**Q.** Which EC50 does the source give for B1 here?
**A.** 0.016 µg/mL

**Q.** Which EC50 does the source give for B4 here?
**A.** 0.017 µg/mL

**Q.** With B2 as the binder, how does the EC50 read?
**A.** 0.023 µg/mL

**Q.** For B5, which EC50 is on record?
**A.** 0.016 µg/mL

**Q.** With B3 as the binder, how does the EC50 read?
**A.** 0.019 µg/mL

**Q.** For B6, which EC50 is on record?
**A.** 0.018 µg/mL
